From patent US20180155451A1 (published 2018)

T1: FcγRIIb (human, UniProt P31994 43-217)
T1 construct: extracellular domain; also called 2b; FcgRIIb
T1 sequence (looked up): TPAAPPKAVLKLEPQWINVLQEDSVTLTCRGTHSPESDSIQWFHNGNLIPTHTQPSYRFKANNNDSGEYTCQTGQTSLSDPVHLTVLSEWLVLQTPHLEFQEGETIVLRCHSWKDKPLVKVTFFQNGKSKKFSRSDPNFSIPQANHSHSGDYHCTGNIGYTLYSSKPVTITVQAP

T2: FcγRIIa R (human, UniProt P12318 34-217)
T2 construct: extracellular domain; also called FcgRIIa R type; 2aR
T2 sequence (looked up): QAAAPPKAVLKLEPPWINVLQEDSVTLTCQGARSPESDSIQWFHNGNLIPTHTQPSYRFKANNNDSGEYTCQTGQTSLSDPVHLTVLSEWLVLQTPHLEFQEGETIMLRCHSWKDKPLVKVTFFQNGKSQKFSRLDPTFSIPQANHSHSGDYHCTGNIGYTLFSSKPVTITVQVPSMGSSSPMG

B1: GpH7-B3 variant G237_02A/GpL16-k0 (antibody, human IgG1, kappa)
heavy: not shown
light: DIVMTQSPLSLPVTPGEPASISCQASESLVHSNRNTYLHWYLQKPGQSPQLLIYKVSNRFSGVPDRFSGSGSGTDFTLKISRVEAEDVGVYYCSQNTHVPPTFGQGTKVEIERTVAAPSVFIFPPSDEQLKSGTASVVCLLNNFYPREAKVQWKVDNALQSGNSQESVTEQDSKDSTYSLSSTLTLSKADYEKHKVYACEVTHQGLSSPVTKSFNRGEC
notes: also called Ho Ab G237_02A
B2: GpH7-B3 variant G237_15Y/GpL16-k0 (antibody, human IgG1, kappa)
heavy: not shown
light: B1 light
notes: also called Ho Ab G237_15Y
B3: GpH7-B3 variant G237_04F/GpL16-k0 (antibody, human IgG1, kappa)
heavy: not shown
light: B1 light
notes: also called Ho Ab G237_04F
B4: GpH7-B3 variant G237_13S/GpL16-k0 (antibody, human IgG1, kappa)
heavy: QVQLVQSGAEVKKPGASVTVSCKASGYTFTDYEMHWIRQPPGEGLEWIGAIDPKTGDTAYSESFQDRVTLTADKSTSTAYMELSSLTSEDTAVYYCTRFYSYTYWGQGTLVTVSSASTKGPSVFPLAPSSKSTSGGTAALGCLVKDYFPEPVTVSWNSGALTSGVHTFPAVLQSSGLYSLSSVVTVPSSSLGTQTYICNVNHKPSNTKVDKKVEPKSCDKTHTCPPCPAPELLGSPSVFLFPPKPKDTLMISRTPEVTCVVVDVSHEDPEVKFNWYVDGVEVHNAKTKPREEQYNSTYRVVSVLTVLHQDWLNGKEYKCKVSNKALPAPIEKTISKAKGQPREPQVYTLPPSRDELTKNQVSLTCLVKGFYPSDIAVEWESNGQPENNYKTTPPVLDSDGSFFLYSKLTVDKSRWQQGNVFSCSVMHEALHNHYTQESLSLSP
light: B1 light
notes: also called Ho Ab G237_13S
B5: GpH7-B3 variant G237_06M/GpL16-k0 (antibody, human IgG1, kappa)
heavy: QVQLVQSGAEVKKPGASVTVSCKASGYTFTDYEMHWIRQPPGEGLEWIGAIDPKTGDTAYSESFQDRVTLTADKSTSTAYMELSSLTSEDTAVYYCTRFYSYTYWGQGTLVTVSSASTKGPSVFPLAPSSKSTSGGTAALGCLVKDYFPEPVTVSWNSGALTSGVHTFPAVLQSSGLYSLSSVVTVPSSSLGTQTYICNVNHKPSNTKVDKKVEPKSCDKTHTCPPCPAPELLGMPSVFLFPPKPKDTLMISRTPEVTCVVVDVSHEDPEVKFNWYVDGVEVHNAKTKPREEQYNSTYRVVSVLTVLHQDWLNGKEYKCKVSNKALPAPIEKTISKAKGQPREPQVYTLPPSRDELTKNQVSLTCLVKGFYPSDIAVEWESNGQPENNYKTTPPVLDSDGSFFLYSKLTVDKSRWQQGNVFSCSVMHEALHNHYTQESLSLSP
light: B1 light
notes: also called Ho Ab G237_06M
B6: GpH7-B3 variant G237_18N/GpL16-k0 (antibody, human IgG1, kappa)
heavy: not shown
light: B1 light
notes: also called Ho Ab G237_18N
B7: GpH7-B3 variant G237_20W/GpL16-k0 (antibody, human IgG1, kappa)
heavy: not shown
light: B1 light
notes: also called Ho Ab G237_20W
B8: GpH7-B3 variant G237_10E/GpL16-k0 (antibody, human IgG1, kappa)
heavy: not shown
light: B1 light
notes: also called Ho Ab G237_10E
B9: GpH7-B3 variant I336_06M/GpL16-k0 (antibody, human IgG1, kappa)
heavy: not shown
light: B1 light
notes: also called Ho Ab I336_06M
B10: GpH7-B3 variant A330_05P/GpL16-k0 (antibody, human IgG1, kappa)
heavy: not shown
light: B1 light
notes: also called Ho Ab A330_05P
B11: GpH7-B3 variant H268_05P/GpL16-k0 (antibody, human IgG1, kappa)
heavy: not shown
light: B1 light
notes: also called Ho Ab H268_05P
B12: GpH7-B3 variant G237_08L/GpL16-k0 (antibody, human IgG1, kappa)
heavy: not shown
light: B1 light
notes: also called Ho Ab G237_08L
B13: GpH7-B3 variant I332_14T/GpL16-k0 (antibody, human IgG1, kappa)
heavy: not shown
light: B1 light
notes: also called Ho Ab I332_14T
B14: GpH7-B3 variant H268_15Y/GpL16-k0 (antibody, human IgG1, kappa)
heavy: not shown
light: B1 light
notes: also called Ho Ab H268_15Y
B15: GpH7-B3 variant K326_07I/GpL16-k0 (antibody, human IgG1, kappa)
heavy: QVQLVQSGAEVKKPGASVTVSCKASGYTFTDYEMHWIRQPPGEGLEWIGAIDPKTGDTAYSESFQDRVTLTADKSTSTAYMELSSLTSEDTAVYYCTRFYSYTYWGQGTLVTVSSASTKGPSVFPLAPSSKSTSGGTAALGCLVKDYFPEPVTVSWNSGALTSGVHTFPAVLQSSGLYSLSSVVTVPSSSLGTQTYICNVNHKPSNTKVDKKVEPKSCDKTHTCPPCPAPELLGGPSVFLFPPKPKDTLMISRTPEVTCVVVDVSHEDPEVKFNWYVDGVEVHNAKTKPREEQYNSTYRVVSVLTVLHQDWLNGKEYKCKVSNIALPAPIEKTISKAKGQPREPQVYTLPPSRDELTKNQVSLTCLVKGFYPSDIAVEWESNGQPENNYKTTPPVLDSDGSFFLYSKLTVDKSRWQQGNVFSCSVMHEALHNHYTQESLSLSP
light: B1 light
notes: also called Ho Ab K326_07I
B16: GpH7-B3 variant H268_03V/GpL16-k0 (antibody, human IgG1, kappa)
heavy: not shown
light: B1 light
notes: also called Ho Ab H268_03V
B17: GpH7-B3 variant I332_02A/GpL16-k0 (antibody, human IgG1, kappa)
heavy: not shown
light: B1 light
notes: also called Ho Ab I332_02A
B18: GpH7-B3 variant I336_08L/GpL16-k0 (antibody, human IgG1, kappa)
heavy: not shown
light: B1 light
notes: also called Ho Ab I336_08L
B19: GpH7-B3 variant A330_01G/GpL16-k0 (antibody, human IgG1, kappa)
heavy: not shown
light: B1 light
notes: also called Ho Ab A330_01G
B20: GpH7-B3 variant A327_07I/GpL16-k0 (antibody, human IgG1, kappa)
heavy: not shown
light: B1 light
notes: also called Ho Ab A327_07I
B21: GpH7-B3 variant A327_18N/GpL16-k0 (antibody, human IgG1, kappa)
heavy: not shown
light: B1 light
notes: also called Ho Ab A327_18N
B22: GpH7-B3 variant G237_09D/GpL16-k0 (antibody, human IgG1, kappa)
heavy: not shown
light: B1 light
notes: also called Ho Ab G237_09D
B23: GpH7-B3 variant G237_19Q/GpL16-k0 (antibody, human IgG1, kappa)
heavy: not shown
light: B1 light
notes: also called Ho Ab G237_19Q
B24: GpH7-B3 variant K326_08L/GpL16-k0 (antibody, human IgG1, kappa)
heavy: not shown
light: B1 light
notes: also called Ho Ab K326_08L
B25: GpH7-B3 variant P331_20W/GpL16-k0 (antibody, human IgG1, kappa)
heavy: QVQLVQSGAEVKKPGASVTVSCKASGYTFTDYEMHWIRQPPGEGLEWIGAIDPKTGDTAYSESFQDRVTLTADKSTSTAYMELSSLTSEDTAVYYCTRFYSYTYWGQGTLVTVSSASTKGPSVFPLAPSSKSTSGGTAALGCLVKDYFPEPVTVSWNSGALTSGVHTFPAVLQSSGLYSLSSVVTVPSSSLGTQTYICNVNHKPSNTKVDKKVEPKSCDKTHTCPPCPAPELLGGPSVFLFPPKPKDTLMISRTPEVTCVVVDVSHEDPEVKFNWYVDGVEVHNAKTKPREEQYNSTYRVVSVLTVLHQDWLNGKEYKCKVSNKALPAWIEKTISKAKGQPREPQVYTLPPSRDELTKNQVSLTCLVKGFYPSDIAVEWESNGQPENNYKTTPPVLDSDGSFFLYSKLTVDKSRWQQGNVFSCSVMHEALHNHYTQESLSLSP
light: B1 light
notes: also called Ho Ab P331_20W
B26: GpH7-B3 variant N325_03V/GpL16-k0 (antibody, human IgG1, kappa)
heavy: not shown
light: B1 light
notes: also called Ho Ab N325_03V
B27: GpH7-B3 variant P331_15Y/GpL16-k0 (antibody, human IgG1, kappa)
heavy: not shown
light: B1 light
notes: also called Ho Ab P331_15Y
B28: GpH7-B3 variant N325_01G/GpL16-k0 (antibody, human IgG1, kappa)
heavy: not shown
light: B1 light
notes: also called Ho Ab N325_01G
B29: GpH7-B3 variant S239_08L/GpL16-k0 (antibody, human IgG1, kappa)
heavy: not shown
light: B1 light
notes: also called Ho Ab S239_08L
B30: GpH7-B3 variant N325_15Y/GpL16-k0 (antibody, human IgG1, kappa)
heavy: not shown
light: B1 light
notes: also called Ho Ab N325_15Y
B31: GpH7-B3 variant L328_10E/GpL16-k0 (antibody, human IgG1, kappa)
heavy: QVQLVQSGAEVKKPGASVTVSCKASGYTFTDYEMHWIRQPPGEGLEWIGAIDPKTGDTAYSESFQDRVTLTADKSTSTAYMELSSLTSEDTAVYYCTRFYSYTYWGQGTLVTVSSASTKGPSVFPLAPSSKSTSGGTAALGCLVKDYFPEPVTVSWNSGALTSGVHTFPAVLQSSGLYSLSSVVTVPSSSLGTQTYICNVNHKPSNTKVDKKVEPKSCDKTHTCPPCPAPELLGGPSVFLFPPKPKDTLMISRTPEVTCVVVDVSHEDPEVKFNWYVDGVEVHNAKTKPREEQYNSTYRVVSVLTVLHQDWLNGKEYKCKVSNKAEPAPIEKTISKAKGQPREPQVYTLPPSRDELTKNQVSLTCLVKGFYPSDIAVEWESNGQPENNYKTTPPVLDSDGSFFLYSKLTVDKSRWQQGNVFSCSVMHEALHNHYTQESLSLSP
light: B1 light
notes: also called Ho Ab L328_10E
B32: GpH7-B3 variant N325_09D/GpL16-k0 (antibody, human IgG1, kappa)
heavy: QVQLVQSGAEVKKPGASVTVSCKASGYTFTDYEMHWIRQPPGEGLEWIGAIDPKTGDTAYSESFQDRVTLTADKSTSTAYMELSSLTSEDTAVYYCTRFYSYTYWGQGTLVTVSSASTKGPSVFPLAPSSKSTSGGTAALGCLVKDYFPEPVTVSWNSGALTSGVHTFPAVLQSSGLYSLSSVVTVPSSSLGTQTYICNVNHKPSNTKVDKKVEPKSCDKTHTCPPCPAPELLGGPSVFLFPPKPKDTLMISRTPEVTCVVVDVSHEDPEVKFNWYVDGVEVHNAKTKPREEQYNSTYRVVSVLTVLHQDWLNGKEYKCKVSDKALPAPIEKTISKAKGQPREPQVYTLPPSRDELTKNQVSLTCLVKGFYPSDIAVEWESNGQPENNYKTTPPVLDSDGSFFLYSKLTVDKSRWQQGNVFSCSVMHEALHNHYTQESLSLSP
light: B1 light
notes: also called Ho Ab N325_09D
B33: GpH7-B3 variant N325_10E/GpL16-k0 (antibody, human IgG1, kappa)
heavy: not shown
light: B1 light
notes: also called Ho Ab N325_10E
B34: GpH7-B3 variant L328_13S/GpL16-k0 (antibody, human IgG1, kappa)
heavy: not shown
light: B1 light
notes: also called Ho Ab L328_13S
B35: GpH7-B3 variant L328_14T/GpL16-k0 (antibody, human IgG1, kappa)
heavy: not shown
light: B1 light
notes: also called Ho Ab L328_14T
B36: GpH7-B3 variant L328_02A/GpL16-k0 (antibody, human IgG1, kappa)
heavy: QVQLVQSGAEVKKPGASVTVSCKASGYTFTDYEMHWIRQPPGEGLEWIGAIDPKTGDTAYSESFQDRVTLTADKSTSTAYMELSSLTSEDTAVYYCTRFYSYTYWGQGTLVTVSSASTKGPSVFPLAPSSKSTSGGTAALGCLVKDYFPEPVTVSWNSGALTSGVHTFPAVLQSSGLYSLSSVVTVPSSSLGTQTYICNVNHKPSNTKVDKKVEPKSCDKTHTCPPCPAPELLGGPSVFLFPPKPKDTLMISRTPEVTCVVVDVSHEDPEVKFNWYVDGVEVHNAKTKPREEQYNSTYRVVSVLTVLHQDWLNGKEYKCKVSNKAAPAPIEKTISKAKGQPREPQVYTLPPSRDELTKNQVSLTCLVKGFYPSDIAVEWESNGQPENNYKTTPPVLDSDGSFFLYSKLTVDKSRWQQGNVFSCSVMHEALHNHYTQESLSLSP
light: B1 light
notes: also called Ho Ab L328_02A
B37: GpH7-B3 variant P238_06M/GpL16-k0 (antibody, human IgG1, kappa)
heavy: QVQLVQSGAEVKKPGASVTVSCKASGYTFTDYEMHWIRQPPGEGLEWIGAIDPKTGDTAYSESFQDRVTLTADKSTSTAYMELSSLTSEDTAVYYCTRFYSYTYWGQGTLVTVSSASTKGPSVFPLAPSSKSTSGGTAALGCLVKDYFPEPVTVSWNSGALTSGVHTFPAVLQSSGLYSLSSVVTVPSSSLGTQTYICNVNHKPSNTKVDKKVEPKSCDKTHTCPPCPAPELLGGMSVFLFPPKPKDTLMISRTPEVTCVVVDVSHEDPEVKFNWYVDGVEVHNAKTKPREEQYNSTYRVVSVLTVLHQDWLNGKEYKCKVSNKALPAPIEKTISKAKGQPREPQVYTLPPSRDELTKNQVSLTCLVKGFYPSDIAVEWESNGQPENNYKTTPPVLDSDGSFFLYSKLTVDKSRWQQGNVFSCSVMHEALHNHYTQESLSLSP
light: B1 light
notes: also called Ho Ab P238_06M
B38: GpH7-B3 variant N325_14T/GpL16-k0 (antibody, human IgG1, kappa)
heavy: not shown
light: B1 light
notes: also called Ho Ab N325_14T
B39: GpH7-B3 variant S239_10E/GpL16-k0 (antibody, human IgG1, kappa)
heavy: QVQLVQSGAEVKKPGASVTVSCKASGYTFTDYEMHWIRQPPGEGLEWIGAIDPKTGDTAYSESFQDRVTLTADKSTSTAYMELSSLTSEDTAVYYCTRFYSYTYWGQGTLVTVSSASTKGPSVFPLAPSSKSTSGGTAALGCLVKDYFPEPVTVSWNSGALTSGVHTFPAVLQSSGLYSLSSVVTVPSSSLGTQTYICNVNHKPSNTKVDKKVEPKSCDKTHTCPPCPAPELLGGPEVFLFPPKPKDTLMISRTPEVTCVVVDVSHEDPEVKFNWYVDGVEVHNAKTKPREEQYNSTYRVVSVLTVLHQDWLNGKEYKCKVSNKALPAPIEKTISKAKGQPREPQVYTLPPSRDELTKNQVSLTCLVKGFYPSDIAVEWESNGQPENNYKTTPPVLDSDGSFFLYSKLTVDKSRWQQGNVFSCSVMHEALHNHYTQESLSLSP
light: B1 light
notes: also called Ho Ab S239_10E
B40: GpH7-B3 variant P238_04F/GpL16-k0 (antibody, human IgG1, kappa)
heavy: not shown
light: B1 light
notes: also called Ho Ab P238_04F
B41: GpH7-B3 variant P238_09D/GpL16-k0 (antibody, human IgG1, kappa)
heavy: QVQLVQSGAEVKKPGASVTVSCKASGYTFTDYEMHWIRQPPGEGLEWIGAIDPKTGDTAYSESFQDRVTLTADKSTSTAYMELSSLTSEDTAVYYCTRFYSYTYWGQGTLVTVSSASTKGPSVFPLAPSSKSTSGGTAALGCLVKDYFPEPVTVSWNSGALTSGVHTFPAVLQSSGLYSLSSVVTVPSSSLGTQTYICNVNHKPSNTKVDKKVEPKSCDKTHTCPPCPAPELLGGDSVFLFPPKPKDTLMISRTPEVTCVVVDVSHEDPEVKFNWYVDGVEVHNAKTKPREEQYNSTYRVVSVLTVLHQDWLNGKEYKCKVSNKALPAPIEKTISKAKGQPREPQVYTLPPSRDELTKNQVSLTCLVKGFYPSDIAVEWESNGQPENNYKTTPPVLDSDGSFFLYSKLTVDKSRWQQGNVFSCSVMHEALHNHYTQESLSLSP
light: B1 light
notes: also called Ho Ab P238_09D
B42: GpH7-B3 variant N325_07I/GpL16-k0 (antibody, human IgG1, kappa)
heavy: not shown
light: B1 light
notes: also called Ho Ab N325_07I
B43: GpH7-B3 variant P331_04F/GpL16-k0 (antibody, human IgG1, kappa)
heavy: not shown
light: B1 light
notes: also called Ho Ab P331_04F
B44: GpH7-B3 variant P271_08L/GpL16-k0 (antibody, human IgG1, kappa)
heavy: not shown
light: B1 light
notes: also called Ho Ab P271_08L
B45: GpH7-B3 variant P238_03V/GpL16-k0 (antibody, human IgG1, kappa)
heavy: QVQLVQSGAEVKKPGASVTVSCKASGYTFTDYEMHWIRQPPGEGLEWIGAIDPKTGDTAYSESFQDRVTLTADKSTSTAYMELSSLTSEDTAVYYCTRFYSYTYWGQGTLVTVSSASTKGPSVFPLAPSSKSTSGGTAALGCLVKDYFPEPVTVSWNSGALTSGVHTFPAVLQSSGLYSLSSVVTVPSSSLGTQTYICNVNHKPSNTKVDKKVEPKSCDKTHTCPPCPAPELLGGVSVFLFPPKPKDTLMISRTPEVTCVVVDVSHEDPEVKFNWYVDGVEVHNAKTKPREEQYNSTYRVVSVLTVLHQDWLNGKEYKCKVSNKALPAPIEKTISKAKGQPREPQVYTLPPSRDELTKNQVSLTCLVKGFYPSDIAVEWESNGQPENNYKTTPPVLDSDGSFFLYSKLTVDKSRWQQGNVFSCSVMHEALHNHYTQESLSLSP
light: B1 light
notes: also called Ho Ab P238_03V
B46: GpH7-B3 variant S267_03V/GpL16-k0 (antibody, human IgG1, kappa)
heavy: not shown
light: B1 light
notes: also called Ho Ab S267_03V
B47: GpH7-B3 variant N325_20W/GpL16-k0 (antibody, human IgG1, kappa)
heavy: not shown
light: B1 light
notes: also called Ho Ab N325_20W
B48: GpH7-B3 variant L328_09D/GpL16-k0 (antibody, human IgG1, kappa)
heavy: not shown
light: B1 light
notes: also called Ho Ab L328_09D
B49: GpH7-B3 variant P331_02A/GpL16-k0 (antibody, human IgG1, kappa)
heavy: not shown
light: B1 light
notes: also called Ho Ab P331_02A
B50: GpH7-B3 variant S239_18N/GpL16-k0 (antibody, human IgG1, kappa)
heavy: not shown
light: B1 light
notes: also called Ho Ab S239_18N
B51: GpH7-B3 variant N325_08L/GpL16-k0 (antibody, human IgG1, kappa)
heavy: not shown
light: B1 light
notes: also called Ho Ab N325_08L
B52: GpH7-B3 variant P331_16H/GpL16-k0 (antibody, human IgG1, kappa)
heavy: not shown
light: B1 light
notes: also called Ho Ab P331_16H
B53: GpH7-B3 variant N325_13S/GpL16-k0 (antibody, human IgG1, kappa)
heavy: not shown
light: B1 light
notes: also called Ho Ab N325_13S

What follows are binders tested against T1, FcγRIIb (assay: SPR (Biacore), binding relative to GpH7-B3/GpL16-k0 = 100).
Protocol: (§1) Analysis of interaction between objective antibody and the FcγR was carried out using Biacore T100 (GE Healthcare). HBS-EP+ (GE Healthcare) was used as the running buffer, and the measurement temperature was set to 25° C. Chips produced by immobilizing the antigen peptide by the amine coupling method to a Series S Sencor Chip CM5 (GE Healthcare), or alternatively, chips produced by allowing preliminarily biotinylated antigen peptides to interact with and immobilize onto a Series S Sensor Chip SA (certified) (GE Healthcare) were used. Antibodies of interest were captured onto an antigen peptide-immobilized chip, and allowed to interact to each FcγR diluted with running buffer. To regenerate and repeatedly use the chip, the antibodies captured on the chip were washed off by reacting 10 mM glycine-HCl, pH 1.5.
(§2) The FcγR-binding activity of each antibody was assessed primarily using as an indicator the FcγR-binding activity and dissociation constant for FcγR.

Row | Ho/Con_2b | Binder
1 | 47.8 % of control | B1
2 | 83.1 % of control | B2
3 | 140 % of control | B3
4 | 25.7 % of control | B4
5 | 35.3 % of control | B5
6 | 63.9 % of control | B6
7 | 166 % of control | B7
8 | 17.8 % of control | B8
9 | 90.1 % of control | B9
10 | 35.3 % of control | B10
11 | 109 % of control | B11
12 | 49.4 % of control | B12
13 | 106 % of control | B13
14 | 104 % of control | B14
15 | 170 % of control | B15
16 | 109 % of control | B16
17 | 81.8 % of control | B17
18 | 103 % of control | B18
19 | 102 % of control | B19
20 | 37.6 % of control | B20
21 | 101 % of control | B21
22 | 92.9 % of control | B22
23 | 5.3 % of control | B23
24 | 168 % of control | B24

The binders below were run against T2, FcγRIIa R (assay: SPR Biacore; vs GpH7-B3/GpL16-k0 =100).
Protocol: as §1, §2

Row | Ho/Con_2aR | Binder
25 | 102 % of control | B25
26 | 37.8 % of control | B26
27 | 105 % of control | B27
28 | 26.7 % of control | B28
29 | 106 % of control | B29
30 | 42.6 % of control | B30
31 | 48.1 % of control | B31
32 | 74.8 % of control | B32
33 | 49.9 % of control | B33
34 | 108 % of control | B34
35 | 118 % of control | B35
36 | 97 % of control | B36
37 | 88.9 % of control | B37
38 | 60.2 % of control | B38
39 | 122 % of control | B39
40 | 146 % of control | B40
41 | 13 % of control | B41
42 | 77 % of control | B42
43 | 106 % of control | B43
44 | 102 % of control | B44
45 | 116 % of control | B45
46 | 115 % of control | B46
47 | 56 % of control | B47
48 | 68.8 % of control | B48
49 | 102 % of control | B49
50 | 103 % of control | B50
51 | 95 % of control | B51
52 | 100 % of control | B52
53 | 126 % of control | B53
